# Results from article PMC8085991.
# Tested on: Nc1nc2c(ncn2[C@@H]2O[C@H](COP(=O)(O)OP(=O)(O)OP(=O)(O)O)[C@@H](O)[C@H]2O)c(=O)[nH]1
# Test: purified protein
# Details: 59 nM GST-FlhFBb; GTP 0-100 μM; room temperature
substance,measurement,value
"rFlhFBb (BB0270, GST-FlhFBb) (Borreliella burgdorferi B31)",Km,10.71 ± 2.08 µM
same,Vmax,113 µmol/min
same,kcat,0.0318 ± 0.00133 s⁻¹
same,kcat/Km,2970 M⁻¹ s⁻¹
